# “Also recorded” adds a separate entry of the source.
# B1: rSHA: recombinant SHA(A108E) expressed in E. coli, cleaved from Trx-SMT3 fusion; SEQ ID NO: 25 (protein)
# chain: ARTVCYAAHVEGIGWQGAVCDGAVAGTTGQSRRMEAAVIATSGTGGVCANAHLADIGWQGWACAADGKAVTVGTTGQSRRMEALGLQVGNGSVAAQAHVADYGWLNAEGGNPVYVGTTGQSRRMEAVRIWV
# modifications: recombinant SHA
# Experiments:
# [1] = Glycan microarray (RayBio Glycan Array 100); format: binding; conditions: biotin-labeled SHAs 20 μg/ml (1×) and 2 μg/ml (0.1×), absence of L-rhamnose
# [2] = Glycan microarray (RayBio Glycan Array 100); format: binding; conditions: biotin-labeled SHAs 20 μg/ml (1×) and 2 μg/ml (0.1×), absence of L-rhamnose; remark: listed apart in the source
# [3] = Glycan microarray (RayBio Glycan Array 100); format: binding; conditions: glycans listed in Table 4
# Method: Glycan microarray analyses—Microarray analysis was performed according to the manufacturer recommendations using RayBio Glycan Array 100 (RayBiotech, Norcross Ga.) slides. Each slide contains four sub-microarrays printed with 100 synthetic glycans. Briefly, 200 μL of 0.1 mg/mL of both archived SHA and rSHA were dialyzed overnight at 4° C. against 1×PBS dialysis buffer to avoid contaminating samples with amines prior to biotinylation. Dialyzed samples were incubated with biotin-containing reaction solution at 22° C. for 30 min. Sub-arrays were blocked for 30 min at 22° C. After biotinylated SHA samples were diluted with 1×PBS, 400 μL of each sample was added to each sub-array. Slide #1 sub-arrays were incubated with 400 μL of 20 μg/mL (1×) or 2 μg/mL (0.1×) SHA, in the absence or presence of 0.2 M L-Rhamnose. Slide #2 sub-arrays were incubated with 400 μL of 20 μg/mL (1×) or 2 μg/mL of rSHA (0.1×), in the absence or presence of 0.2 M L-rhamnose. Slides were incubated for 16 h at 4° C. for highest intensities. […]
# (§1) Therefore, a novel construct that encoded an E. coli codon-optimized, His-tagged, Trx-SMT3 (SUMO family protein)-SHA(A108E) fusion protein was expressed. […] The glycan binding was measured using two distinct concentrations of biotin-labeled SHAs (1×: 20 μg/ml and 0.1×: 2 μg/ml) in the absence and presence of 0.2 M L-rhamnose as a competitive inhibitor.
# [4] = Glycan microarray (RayBio Glycan Array 100); format: binding; conditions: biotin-labeled SHAs 20 μg/ml (1×) and 2 μg/ml (0.1×), absence of L-rhamnose; remark: listed apart in the source
# [5] = Glycan microarray (RayBio Glycan Array 100); format: binding; conditions: biotin-labeled SHAs 20 μg/ml (1×) and 2 μg/ml (0.1×), absence of L-rhamnose; remark: listed apart in the source
# [6] = Glycan microarray (RayBio Glycan Array 100), whole array profile and L-rhamnose competition; format: binding; conditions: for carbohydrate-binding specificity compared with archived SHA: side by side on Glycan Array 100
# Method: Glycan microarray analyses—Microarray analysis was performed according to the manufacturer recommendations using RayBio Glycan Array 100 (RayBiotech, Norcross Ga.) slides. Each slide contains four sub-microarrays printed with 100 synthetic glycans. Briefly, 200 μL of 0.1 mg/mL of both archived SHA and rSHA were dialyzed overnight at 4° C. against 1×PBS dialysis buffer to avoid contaminating samples with amines prior to biotinylation. Dialyzed samples were incubated with biotin-containing reaction solution at 22° C. for 30 min. Sub-arrays were blocked for 30 min at 22° C. After biotinylated SHA samples were diluted with 1×PBS, 400 μL of each sample was added to each sub-array. Slide #1 sub-arrays were incubated with 400 μL of 20 μg/mL (1×) or 2 μg/mL (0.1×) SHA, in the absence or presence of 0.2 M L-Rhamnose. Slide #2 sub-arrays were incubated with 400 μL of 20 μg/mL (1×) or 2 μg/mL of rSHA (0.1×), in the absence or presence of 0.2 M L-rhamnose. Slides were incubated for 16 h at 4° C. for highest intensities. Washing was performed according to the manufacturer's protocol, followed by incubation with Cy3 dye-conjugated streptavidin. The slides were incubated at 22° C. for 1 h with gentle shaking, then washed multiple times as recommended. The signals were visualized using an Agilent DNA microarray scanner (Model G2505C; Agilent, Santa Clara, Calif.) at 532 nm for Cy3. Data extraction and analysis was performed after subtraction of the background and normalization to the internal references provided by the manufacturer, using an ImageJ Protein Array Analyzer software (28).
# as §1
# [7] = Glycan microarray (RayBio Glycan Array 100); format: binding; conditions: biotin-labeled SHAs 20 μg/ml (1×) and 2 μg/ml (0.1×), absence of L-rhamnose; remark: listed apart in the source
# [8] = Glycan microarray (RayBio Glycan Array 100); format: binding; conditions: biotin-labeled SHAs 20 μg/ml (1×) and 2 μg/ml (0.1×), absence of L-rhamnose; remark: listed apart in the source
# [9] = Glycan microarray (RayBio Glycan Array 100); format: binding; conditions: biotin-labeled SHAs 20 μg/ml (1×) and 2 μg/ml (0.1×), absence of L-rhamnose; remark: listed apart in the source
# [10] = Glycan microarray (RayBio Glycan Array 100); format: binding; conditions: biotin-labeled SHAs 20 μg/ml (1×) and 2 μg/ml (0.1×), absence of L-rhamnose; remark: listed apart in the source
# [11] = Solubility of recombinant SHA proteins; format: physicochemical; conditions: expressed in E. coli
# Method: Due to solubility issues various fusion proteins of the recombinant SHA were prepared and expressed in E. coli. Of those, a yeast SUMO(SMT3)-fusion protein was successfully purified for comparing carbohydrate-binding specificity with that of archived SHA. Briefly, SMT3-fused SHA(A108E) was prepared by insertion at the SMT3 and Ulp1 cleavage sites of pET32b/SHA(A108E). E. Cloni® (Lucigen) was transformed by pET32b/SMT3-SHA(A108E). […] SHA(A108E) was cleaved off from SMT3 bound to the column by incubating with UPL1. The resulting SHA(A108E) was purified by gum arabic gels. The authenticity of SHA(A108E) was confirmed by SDS-PAGE and glycan microarray analyses.
# as §1, with “expressed. This protein was refolded on the nickel NTA column in the presence of D-galactose, and soluble recombinant SHA (rSHA) was cleaved off from the Trx-SMT3 portion using His-tagged Ulp1 (8). The purified rSHA is shown in FIG. 6C, together with archived SHA.” for “expressed.”
# [12] = Glycan microarray (RayBio Glycan Array 100); format: binding; conditions: biotin-labeled SHAs 20 μg/ml (1×) and 2 μg/ml (0.1×), absence of L-rhamnose; remark: listed apart in the source
# [13] = Glycan microarray (RayBio Glycan Array 100); format: binding; conditions: biotin-labeled SHAs 20 μg/ml (1×) and 2 μg/ml (0.1×), absence of L-rhamnose; remark: listed apart in the source
# [14] = Glycan microarray (RayBio Glycan Array 100); format: binding; conditions: biotin-labeled SHAs 20 μg/ml (1×) and 2 μg/ml (0.1×), absence of L-rhamnose; remark: listed apart in the source
molecule,measurement,setting,value
B1,binding signal to α-Rha-,[1],Strong signals
same,"binding to GaINAc-β-1,3-Gal-β-1,4-Glc-β-",[2],"weaker, but still significant, binding"
same,binding to the remaining 89 chip-immobilized glycans,[3],did not bind
same,"binding signal to Gal-α-1,3-Gal-β-",[4],Strong signals
same,"binding to Gal-α-1,4-Gal-β-1,4-GlcNAc-β-",[5],"weaker, but still significant, binding"
same,"binding to all glycans, except α-Rha, in the presence of L-rhamnose",[6]; 0.2 M L-rhamnose as competitive inhibitor,competitively inhibited
same,carbohydrate-binding specificity compared with archived SHA,[6],identical carbohydrate-binding specificities; also recorded: same glycan specificity profile
same,carbohydrate-binding specificity compared with archived SHA,[6]; listed as SHA(A108E),same carbohydrate-binding specificity
same,binding signal to Blood B antigen tetrasaccharide,[7],Strong signals
same,"binding to Gal-α-1,4-Gal-β-1,4-Glc-β-",[8],"weaker, but still significant, binding"
same,"binding signal to Gal-α-1,4-Gal-β-1,3-GlcNAc-β-",[9],Strong signals
same,"binding signal to Gal-α-1,3-Gal-β-1,3-GlcNAc-β-",[10],Strong signals
same,solubility,[11],soluble
same,"binding signal to Gal-α-1,3-Gal-β-1,4-Glc-β-",[12],Strong signals
same,binding signal to Blood B antigen trisaccharide,[13],Strong signals
same,binding signal to β-Gal-,[14],Strong signals
